The supplement of paper PMC11908140

B1: library; numbered along this chain (parent)
chain: MRKPRAAVGSGHRKQAASQEGRQKHAKNNSQAKPSACDGLARQPEEVVLQASVSSYHLFRDVAEVTAFRGSLLSWYDQEKRDLPWRRRAEDEMDLDRRAYAVWVSEVMLQQTQVATVINYYTGWMQKWPTLQDLASASLEEVNQLWAGLGYYSRGRRLQEGARKVVEELGGHMPRTAETLQQLLPGVGRYTAGAIASIAFGQATGVVDGNVARVLCRVRAIGADPSSTLVSQQLWGLAQQLVDPARPGDFNQAAMELGATVCTPQRPLCSQCPVESLCRARQRVEQEQLLASGSLSGSPDVEECAPNTGQCHLCLPPSEPWDQTLGVVNFPRKASRKPPREESSATCVLEQPGALGAQILLVQRPNSGLLAGLWEFPSVTWEPSEQLQRKALLQELQRWAGPLPATHLRHLGEVVHTFSHIKLTYQVYGLALEGQTPVTTVPPGARWLTQEEFHTAAVSTAMKKVFRVYQGQQPGTCMGSKRSQVSSPCSRKKPRMGQQVLDNFFRSHISTDAHSLNSAAQ

Variants of: B1
Test: 8OG:A repair function score (normalized; synonymous = 0, nonsense = -1) (normalized log-likelihood score); higher = more repair activity (WT-like)
Conditions: with 8OG:A DNA repair reporter (GFP) in HEK-293 MUTYH KO cells
Method in brief: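 Per-tile Rosace fitness scores were converted to a normalized repair function score anchored on synonymous and nonsense distributions. That scale puts synonymous medians at 0 and nonsense medians at -1. Variants with starting counts under 300 counts per million were discarded. Input came from sorting viable mCherry+ MUTYH knockout HEK-293 cells, carrying lentiviral MUTYH cDNA NNN codon-scan libraries in 10 pg/ml doxycycline and an 8OG:A GFP repair reporter, into GFP+ and GFP− bins at 72 h, three replicates per tile, followed by tile amplicon sequencing.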
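Note: cells sorted at 72 h after reporter transfection.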

Row | Variant | 8OG:A repair function score
1 | MRKPRAAVGSGHRKQAASQEGRQKHAKNNSQAKPSACDGLARQPEEVVLQASVSSYHLFRDVAEVTAFRGSLLSWYDQEKRDLPWRRRAEDEMDLDRRAYAVWVSEVMLQQTQVATVINYYTGWMQKWPTLQDLASASLEEVNQLWAGLGYYSRGRRLQEGARKVVEELGGHMPRTAETLQQLLPGVGRYTAGAIASIAFGQATGVVDGNVARVLCRVRAIGADPSSTLVSQQLWGLAQQLVDPARPGDFNQAAMELGATVCTPQRPLCSQCPVESLCRARQRVEQEQLLASGSLSGSPDVEECAPNTGQCHLCLPPSEPWDQTLGVVNFPRKASRKPPREESSATCVLEQPGALGAQILLVQRPNSGLLAGLWEFPSVTWEPSEQLQRKALLQELQRWAGPLPATHLRHLGEVVHTFSHIKLTYQVYGLALEGQTPVTTVPPGARWLTQEEFHTAAVSTAMKKVFRVYQGQQPGTCMGSKRSQVSSPCSRKKPRMGQQVLSNFFRSHISTDAHSLNSAAQ [D502S] | -0.0153
2 | MRKPRAAVGSGHRKQAASQEGRQKHAKNNSQAKPSACDGLARQPEEVVLQASVSSYHLFRDVAEVTAFRGSLLSWYDQEKRDLPWRRRAEDEMDLDRRAYAVWVSEVMLQQTQVATVINYYTGWMQKWPTLQDLASASLEEVNQLWAGLGYYSRGRRLQEGARKVVEELGGHMPRTAETLQQLLPGVGRYTAGAIASIAFGQATGVVDGNVARVLCRVRAIGADPSSTLVSQQLWGLAQQLVDPARPGDFNQAAMELGATVCTPQRPLCSQCPVESLCRARQRVEQEQLLASGSLSGSPDVEECAPNTGQCHLCLPPSEPWDQTLGVVNFPRKASRKPPREESSATCVLEQPGALGAQILLVQRPNSNLLAGLWEFPSVTWEPSEQLQRKALLQELQRWAGPLPATHLRHLGEVVHTFSHIKLTYQVYGLALEGQTPVTTVPPGARWLTQEEFHTAAVSTAMKKVFRVYQGQQPGTCMGSKRSQVSSPCSRKKPRMGQQVLDNFFRSHISTDAHSLNSAAQ [G368N] | -0.146
3 | MRKPRAAVGSGHRKQAASQEGRQKHAKNNSQAKPSACDGMARQPEEVVLQASVSSYHLFRDVAEVTAFRGSLLSWYDQEKRDLPWRRRAEDEMDLDRRAYAVWVSEVMLQQTQVATVINYYTGWMQKWPTLQDLASASLEEVNQLWAGLGYYSRGRRLQEGARKVVEELGGHMPRTAETLQQLLPGVGRYTAGAIASIAFGQATGVVDGNVARVLCRVRAIGADPSSTLVSQQLWGLAQQLVDPARPGDFNQAAMELGATVCTPQRPLCSQCPVESLCRARQRVEQEQLLASGSLSGSPDVEECAPNTGQCHLCLPPSEPWDQTLGVVNFPRKASRKPPREESSATCVLEQPGALGAQILLVQRPNSGLLAGLWEFPSVTWEPSEQLQRKALLQELQRWAGPLPATHLRHLGEVVHTFSHIKLTYQVYGLALEGQTPVTTVPPGARWLTQEEFHTAAVSTAMKKVFRVYQGQQPGTCMGSKRSQVSSPCSRKKPRMGQQVLDNFFRSHISTDAHSLNSAAQ [L40M] | 0.227
4 | MRKPRAAVGSGHRKQAASQEGRQKHAKNNSQAKPSACDGLARQPLEVVLQASVSSYHLFRDVAEVTAFRGSLLSWYDQEKRDLPWRRRAEDEMDLDRRAYAVWVSEVMLQQTQVATVINYYTGWMQKWPTLQDLASASLEEVNQLWAGLGYYSRGRRLQEGARKVVEELGGHMPRTAETLQQLLPGVGRYTAGAIASIAFGQATGVVDGNVARVLCRVRAIGADPSSTLVSQQLWGLAQQLVDPARPGDFNQAAMELGATVCTPQRPLCSQCPVESLCRARQRVEQEQLLASGSLSGSPDVEECAPNTGQCHLCLPPSEPWDQTLGVVNFPRKASRKPPREESSATCVLEQPGALGAQILLVQRPNSGLLAGLWEFPSVTWEPSEQLQRKALLQELQRWAGPLPATHLRHLGEVVHTFSHIKLTYQVYGLALEGQTPVTTVPPGARWLTQEEFHTAAVSTAMKKVFRVYQGQQPGTCMGSKRSQVSSPCSRKKPRMGQQVLDNFFRSHISTDAHSLNSAAQ [E45L] | -0.0561
5 | MRKPRAAVGSGHRKQAASQEGRQKHAKNNSQAKPSACDGLARQPEEVVLQASVSSYHLFRDVAEVTAFRGSLLSWYDQEKRDLPWRRRAEDEMDLDRRAYAVWVSEVMLQQTQVATVINYYTGWMQKWPTLQDLASASLEEVNQLWAGLGYYSRGRRLQEGARKVVEELGGHMPRTAETLQQLLPGVGRYTAGAIASIAFGQATGVVDGNVARVLCRVRAIGADPSSTLVSQQLWGLAQQLVDPARPGDFNQAAMELGATVCTPQRPLCSQCPVESLCRARQRVEQEQLLASGSLSGSPDVEECAPNTGQCHLCLPPSEPWDQTLGVVNFPRKASRKPPREESSATCVLEQPGALGAQILLVQRPNSGLLAGLWEFPSVTWEPSEQLQRKALLQELQRWAGPLPATHLRHLGEVVHTFSHSKLTYQVYGLALEGQTPVTTVPPGARWLTQEEFHTAAVSTAMKKVFRVYQGQQPGTCMGSKRSQVSSPCSRKKPRMGQQVLDNFFRSHISTDAHSLNSAAQ [I421S] | -0.59
6 | MRKPRAAVGSGHRKQAASQEGRQKHAKNNSQAKPSACDGLARQPEEVVLQASVSSYHLFRDVAEVTAFRGSLLSWYDQEKRDLPWRRRAEDEMDLDRRAYAVWVSEVMLQQTQCATVINYYTGWMQKWPTLQDLASASLEEVNQLWAGLGYYSRGRRLQEGARKVVEELGGHMPRTAETLQQLLPGVGRYTAGAIASIAFGQATGVVDGNVARVLCRVRAIGADPSSTLVSQQLWGLAQQLVDPARPGDFNQAAMELGATVCTPQRPLCSQCPVESLCRARQRVEQEQLLASGSLSGSPDVEECAPNTGQCHLCLPPSEPWDQTLGVVNFPRKASRKPPREESSATCVLEQPGALGAQILLVQRPNSGLLAGLWEFPSVTWEPSEQLQRKALLQELQRWAGPLPATHLRHLGEVVHTFSHIKLTYQVYGLALEGQTPVTTVPPGARWLTQEEFHTAAVSTAMKKVFRVYQGQQPGTCMGSKRSQVSSPCSRKKPRMGQQVLDNFFRSHISTDAHSLNSAAQ [V114C] | -0.178
7 | MRKPRAAVGSGHRKQAASQEGRQKHAKNNSQAKPSACDGLARQPEEVVLQASVSSYHLFRDVAEVTAFRGSLLSWYDQEKRDLPWRRRAEDEMDDDRRAYAVWVSEVMLQQTQVATVINYYTGWMQKWPTLQDLASASLEEVNQLWAGLGYYSRGRRLQEGARKVVEELGGHMPRTAETLQQLLPGVGRYTAGAIASIAFGQATGVVDGNVARVLCRVRAIGADPSSTLVSQQLWGLAQQLVDPARPGDFNQAAMELGATVCTPQRPLCSQCPVESLCRARQRVEQEQLLASGSLSGSPDVEECAPNTGQCHLCLPPSEPWDQTLGVVNFPRKASRKPPREESSATCVLEQPGALGAQILLVQRPNSGLLAGLWEFPSVTWEPSEQLQRKALLQELQRWAGPLPATHLRHLGEVVHTFSHIKLTYQVYGLALEGQTPVTTVPPGARWLTQEEFHTAAVSTAMKKVFRVYQGQQPGTCMGSKRSQVSSPCSRKKPRMGQQVLDNFFRSHISTDAHSLNSAAQ [L95D] | 0.00648
8 | MRKPRAAVGSGHRKQAASQEGRQKHAKNNSQAKPSACDGLARQPEEVVLQASVSSYHLFRDVAEVTAFRGSLLSWYDQEKRDLPWRRRAEDPMDLDRRAYAVWVSEVMLQQTQVATVINYYTGWMQKWPTLQDLASASLEEVNQLWAGLGYYSRGRRLQEGARKVVEELGGHMPRTAETLQQLLPGVGRYTAGAIASIAFGQATGVVDGNVARVLCRVRAIGADPSSTLVSQQLWGLAQQLVDPARPGDFNQAAMELGATVCTPQRPLCSQCPVESLCRARQRVEQEQLLASGSLSGSPDVEECAPNTGQCHLCLPPSEPWDQTLGVVNFPRKASRKPPREESSATCVLEQPGALGAQILLVQRPNSGLLAGLWEFPSVTWEPSEQLQRKALLQELQRWAGPLPATHLRHLGEVVHTFSHIKLTYQVYGLALEGQTPVTTVPPGARWLTQEEFHTAAVSTAMKKVFRVYQGQQPGTCMGSKRSQVSSPCSRKKPRMGQQVLDNFFRSHISTDAHSLNSAAQ [E92P] | -0.0511
9 | MRKPRAAVGSGHRKQAASQEGRQKHAKNNSQAKPSACDGLARQPEEVVLQASVSSYHLFRDVAEVTAFRGSLLSWYDQEKRDLPWRRRAEDEMDLDRRAYAVWVSEVMLQQTQVATVINYYTGWMQKWPTLQDLASASLEEVNQLWAGLGYYSRGRRLQEGARKVVEELGGHMPRTAETLQQLLPGVGRYTAGAIASIAFGQATGVVDGNVARVLCRVRAIGADPSSTLVSQQLWGLAQQLVDPARPGDFNQAAMELGATVCTPQRPLCSQCPVESLCRARQRVEQEQLLASGSLSGSPDVEECAPNTGQCHLCLPPSEPWDQTLGVVNFPRKASRKPPREESSATCVLEQPGALGAQILLVQRPNSGLLAGLWEFPSVTWEPSEQLQRKALLQELQRWAGPLKATHLRHLGEVVHTFSHIKLTYQVYGLALEGQTPVTTVPPGARWLTQEEFHTAAVSTAMKKVFRVYQGQQPGTCMGSKRSQVSSPCSRKKPRMGQQVLDNFFRSHISTDAHSLNSAAQ [P404K] | 0.298
10 | MRKPRAAVGSGHRKQAASQEGRQKHAKNNSQAKPSACDGLARQPEEVVLQASVSSYHLFRDVAEVTAFRGSLLSWYDQEKRDLPWRRRAEDEMDLDRRAYAVWVSEVMLQQTQVATVINYYTGWMQKWPTLQDLASASLEEVNQLWAGLGYYKRGRRLQEGARKVVEELGGHMPRTAETLQQLLPGVGRYTAGAIASIAFGQATGVVDGNVARVLCRVRAIGADPSSTLVSQQLWGLAQQLVDPARPGDFNQAAMELGATVCTPQRPLCSQCPVESLCRARQRVEQEQLLASGSLSGSPDVEECAPNTGQCHLCLPPSEPWDQTLGVVNFPRKASRKPPREESSATCVLEQPGALGAQILLVQRPNSGLLAGLWEFPSVTWEPSEQLQRKALLQELQRWAGPLPATHLRHLGEVVHTFSHIKLTYQVYGLALEGQTPVTTVPPGARWLTQEEFHTAAVSTAMKKVFRVYQGQQPGTCMGSKRSQVSSPCSRKKPRMGQQVLDNFFRSHISTDAHSLNSAAQ [S153K] | -0.0744
11 | MRKPRAAVGSGHRKQAASQEGRQKHAKNNSQAKPSACDGLARQPEEVVLQASVSSYHLFRDVAEVTAFRGSLLSWYDQEKRDLPWRRRAEDEMDLDRRAYAVWVSEVMLQQTQVATVINYYTGWMQKWPTLQDLASASLEEVNQLWAGLGYYSRGRRLQEGARKVVEELGGHMPRTAETLQQLLPGVGRYTAGAIASIAFGQATGVVDGNVARVLCRVRAIGADPSSTLVSQQLWGLAQQLVDPARPGDFNQAAMELGATVCTPQRPLCSQCPVESLCRARQRVEQEQLLASGSLSGSPDVEECAPNTGQCHLCLPPSEPWDQTLGVVNFPRKASRKPPREESSATCVLEQPGALGAQILLVQRPNSGLLAELWEFPSVTWEPSEQLQRKALLQELQRWAGPLPATHLRHLGEVVHTFSHIKLTYQVYGLALEGQTPVTTVPPGARWLTQEEFHTAAVSTAMKKVFRVYQGQQPGTCMGSKRSQVSSPCSRKKPRMGQQVLDNFFRSHISTDAHSLNSAAQ [G372E] | -0.387
12 | MRKPRAAVGSGHRKQAASQEGRQKHAKNNSQAKPSACDGLARQPEEVVLQASVSSYHLFRDVAEVTAFRGSLLSWYDQEKRDLPWRRRAEDEMDLDRRAYAVWVSEVMLQQTQVATVINYYTGWMQKWPTLQDLASASLEEVNQLWAGLGYYSRGRRLQEGARKVVEELGGHMPRTAETLQQLLPGVGRYTAGAIASIAFGQATGVVDGNVARVLCRVRAIGADPSSTLVSQQLWGLAQQLVDPARPGDFNQAAMELGATVCTPQRPLCSQCPVESLCRARQRVEQEQLLASGSLSGSPDVEECAPNTGQCHLCLPPSEPWDQTLGVVNFPRKASRKPPREESSATCVLEQPGALGAQILLVQRPNSGLLAGLWEFPSVTWEPSEQLQRKALLQELQRWAGPLPATHLRHLGEVVHTFSHIKLTYQVYGLALEGQTPVTTVPPGARWLTQEEFHTAAVSTALKKVFRVYQGQQPGTCMGSKRSQVSSPCSRKKPRMGQQVLDNFFRSHISTDAHSLNSAAQ [M462L] | -0.449
